Results taken from a protein production outcome set (Wang et al. 2014).

Test: label from the status in PepcDB records

Row | Sequence | protein production
1 | MQAGNPMSLQSMLPYVTPPVVGAVIGYVTNDIAIRMLFRPLKPWRVFGIRVPLTPGVIPAGRHEFAATIGRMVGTHLVTGTDVARALGKDSFRRELQEAVSGKLDTLLDRDLGTVGSLLPEGFESWLRDGVDLAARRAGETVAGYLQGEDFRRELSLFLRDLEERVLPRELERILAGETGDAVRAGAGRALAALLQSRGVSRAVAGLVDDKLDELLASERPLRELLPPELVELATAQAREAMPVILGRVAEFVRSPEIRDTFEAKLREGVQQYLANLKGTLGFMAGFISVEKLNSYFPGLVGSVTDEVVRWLGEETTHRRVAAMVDQGLGRILDRPLAATVEQLPYRRVALLRRSIRRGALGVVRRPETAGFLLALAERELVRLAADPSRPILERLAPEDDPSRLREGLVGWLTDRLRDPGIRATLERIVAGRVEEWLFNRPLGRLSARISAEVRRDLDQLIYRQVADLLEREAPPLIDALDVARMVEEKINTLDILAVEGLLLSIMQKHFLYINLFGALLGFVMGSFNVLLMGLGR | failed
2 | MAPRTNRPRTNRPRTGRPPAPDAPAAPDAPTAPDARRRRLPMRFLLPSLLLLAVMAMLMLRGFVHSEILADHRIRPPAATDQVPEKILDGGPVIDTRGGRTTSLSLPDHRLVLTFDDGPDPQWTPKVLDVLKKHHAHAVFFVTGTMTSRHPDLVRRLVAEGHEVGVHTFNHPDLAYQSKKRIDWELSQNQLALAGAAGIRTSLFRPPYSSFADAMDNESWPVTEYIGTRGYITVVNNTDSEDWQKPGVDEIIRRATPRGGKGAVVLMHDSGGDRHQTVQALDRFLPELQRRGYEFENLSEALGAPSAHTPVTGVDRWKGNAWIFLVQAADRITGMLVVGLAVIGGLVLTRFGLMLLLSGTHARRVRRPDFRWGPAPVTEPVSVLVPAYNEAKCIENTVRSLTASEHPVEVIVVDDGSSDGTARLVESLRLPDVRVVRQHNAGKPAALNRGLANARHDLIVMMDGDTVFEPATVRELVQPFADPRVGAVAGNAKVGNRDSLIGAWQHIEYVMGFNLDRRMYDLLRCMPTIPGAVGAFRRSALERVGGMSDDTLAEDTDITMALHRDGWRVVYAEKARAWTEAPESVQQLWSQRYRWSYGTMQAIWKHRRALVERGPSGRFGRVGLPLVALFMVVAPLLAPLIDVFLLYGVIFGPTQKTVLAWLGVLAVQAVCAAYAFRLDRERMTHLVSLPLQQILYRQLMYVVLLQSWITALVGGRLRWQKLRRTGVVEAPGSIPQQRTAGSESERRPVG | failed
3 | LNLMMTPMLKVLATPERLAFGLKQMVSYLHANGVTAYMEPGALYTPDMWKLYEQILGAPETPMYATFIADGRGIVDRVGLDGALDAVEQQIAVAPEAPGRKLMFFPGQIKLFADGAIISQLMQMKDGYLDGHQGEWIIPPDELERRARLFWNAGYQIHTHVNGDLGLEKLLDILEKLNAEHPRPDHRSVIVHFANSTEDQVARIKRLGALVSANPYYTTGFADKYSAVGLGPERADAMVRAKSVLDQGVPLSYHSDLPMAPSAPLYLAWCGVNRLTPSGRVAGPEQRVSVDAALRAITIEAAYSWRHEDQ | failed
4 | MEGFPVRVRVDVRFRDLDPLGHVNNAVFLSYMELARIRYFQRISPDWLEEGHFVVARMEVDYLRPILLGDEVFVGVRTVGLGRSSLRMEHLVTANGESAAKGLGVLVWLEGGRPAPLPEAIRERIRALEGRPL | not failed
5 | MDTSDLFASCRKGDVGRVRYLLEQRDVEVNVRDKWDSTPLYYACLCGHEELVLYLLANGARCEANTFDGERCLYGALSDPIRRALRDYKQVTASCRRRDYYDDFLQRLLEQGIHSDVVFVVHGKPFRVHRCVLGARSAYFANMLDTKWKGKSVVVLRHPLINPVAFGALLQYLYTGRLDIGVEHVSDCERLAKQCQLWDLLSDLEAKCEKVSEFVASKPGTCVKVLTIEPPPADPRLREDMALLADCALPPELRGDLWELPFPCPDGFNSCPDICFRVAGCSFLCHKAFFCGRSDYFRALLDDHFRESEEPATSGGPPAVTLHGISPDVFTHVLYYMYSDHTELSPEAAYDVLSVADMYLLPGLKRLCGRSLAQMLDEDTVVGVWRVAKLFRLARLEDQCTEYMAKVIEKLVEREDFVEAVKEEAAAVAARQETDSIPLVDDIRFHVASTVQTYSAIEEAQQRLRALEDLLVSIGLDC | failed
6 | MILLCFPGSEQGIGMHQFEFLGQLVLIGALAIVNILVFQKIRIPPVIGLIFTGIMLGPTGFHVIRNSGLISTLAEMGVVLLLFTIGLEFSADDLKKLRKIVLFGGTAQILLTGLVIAMFSYWLMDAIGKSVGSKEALVLGFSFSVSSTALCLKILSDRGELGFDHGKIALGILIFQDMAIVPLMFGFSFLTRGSSMPLESSFEEIALLLLFAIGMFGGFRLLMPKIVRIITELHAGEVLVLGALVLCFGAAWLASLIGLSLALGAFMAGMVIASTDGSHRISRTIDPFREAMTSIFFVSVGLLLDVNMIELPWLIAIALVVLVVKGLIMTGILMALGFSLRVSLMSGMVLAQIGEFSFVLAGTAKDAGLLDQHMFQSMLAVIVVTMIVTPALISAAPKFAAQVAPALGFMPLASKPEPKQPARAAAGPIVCRGEIHAAIIGFGLIGRNIAAVMNATNLNYTVLDTDRKTVKTMRRQGEPLFYGDCTERKSLLRIGVDHSRAVVICIPEIDAAIQCIRLVREINPGAFIIVRSRSLESTNRFYRAGADAAVTELFETSIQMFSELLKHFRVEPETILAQQEIIRREGGNIFRELVTETDGSGDDPAKKSQNGAGFVTSET | failed
7 | MALKLGVIGTGAIGQDHIRRCSKTLVGSQVVAVTDINLEQAANVVRDLGIGAEVYADGHALIAAPDVEAVLVCSWGPSHEEYVLAAIAAGKPVFCEKPLAVTAEGCRHIVEAEIASGRRLVQVGFMRPYDQGYRALKSVIDSGQIGEPLMLHCAHRNPRVGENYKTDMAITDTLIHELNVLRWLLNDDYVSVQVVFPRKSGKALAHMKDPQIVMLETARGTRIDVEVFVNCQYGYDIQCEVVGESGIARLPEPSQVQLRREAKLSNAILMDWKDRFIAAYDVELQDFIDGVKAGTIYGPSAWDGYAAAVAADACVLAQNNGAVVPITLAMRPAFYA | failed
8 | MKLAKLIPKRFFIRSKDRSTVSKSPTAFSFGSASSSSGQDCKNSGGDGGGGSVTPTSILPEVPSPYSYVEILQAFKLIDRDNDGAVSRHDLESLLSRLGPDPLTEEEINVMLKEVDCDGDGTIRLEELASRVVSLDPARDSTELKETFEFFDADRDGLISADELLRVFSTIGDERCTLDDCKRMIADVDEDGDGFVCFTEFSRMMDLQR | failed
9 | MSTDKSKTRELILNGNLYKVLFLISFPIVITNIIQAFYDLTDMFYVGKLGAMPLSALSLAGPVNFFIIAIAMGMATGSISLMSKCIGEGNFSRFSRYAGQLIVLNFVLSLFVTICAFFFIDHLLDLLGVKGELKELSRVYFYVTIFAIPIMFLSISITYILNAQGETILSMTIVLFANIVNFILDPILIFSFNMGITGAAWATLFSKLLTVVFYLFLTYRLNYGLKIHLKDLVIDIRSIKEIVNLGLPSTFGQIMVSLSFFIFNYIVIEISPKFLAAYGLTNTIISFLFLPAMGIGTGIISIVGQNLGAKKVNRVEEVLKKGFFISLAILLIINSIVIFNKQFILRLFTNDLEVLNYANNYLLLTTIGTFGYGLQQVFFGGLIGSGRTKIAMIVIFIRLWLIRLPVVFIFQYFGIMENSLGYAFIISNYLAIIILIAFTCTRYWVKPILIKKYK | failed
10 | VFVGRCTGDMTEDELREFFSQYGDVMDVFIPKPFRAFAFVTFADDQIAQSLCGEDLIIKGISVHISNAEPKHNSN | not failed
11 | MLLQANRGLGLSAHIIDHCNLILKFPEGTNSTWYNAQFKVFEALEFKYNVCEAVLLWEQYRNMTTVLTREYLDVRPDGWLDYAAMRIAQLGADKCYNRTLCEEHLNVILPAKPPFHPRQFHKCAVVGNSGDLLKTEFGEEIDSHDAVFRDNEAPVNEKYAKYVGVKRDFRLVVRGAARNMIKILNGSDNEVLIIKSVTHRDFNEMIKRIPNPVYLFQGIVLRRGAKGTGMKSIELALSMCDIVDIYGFTVDPGYTEWTRYFSTPRKGHNPLQGRAYYQLLECLGVQITC | failed
12 | MGHHHHHHSHMSYARVRAVVMTRDDSSGGWLPLGGSGLSSVTVFKVPHQEENGCADFFIRGERLRDKMVVLECMLKKDLIYNKVTPTFHHWKIDDKKFGLTFQSPADARAFDRGIRRAIEDISQGCPESK | not failed
13 | QNRIDMAMMRGRCGLWDWNMASGRVYWSRAMYEMLGYIPQDALLSISQITAIINPNDANFFDLAQELMSGKKKHIDINVPMRHADGHYVWMRIRAEVTDEEELHLVGIAFDIS | failed
14 | PLNRLGHKIYQHSGKWLQETAAEKLNQRDQLINPGHAQVLILGMGRIGTGAYDELRARYGKISLGIEIREEAAQQHRSEGRNVISGDATDPDFWERILDTGHVKLVLLAMPHHQGNQTALEQLQRRNYKGQIAAIAEYPDQLEGLLESGVDAAFNIYSEAGSGFARHVCKQLEPQFTSIK | not failed
15 | VFSSEDITETSPDKWLIDGDTPLDEVERAIGYELPEGDYETISGLLFDHANALLKTGDVIEIPLDFEPEDYLNNTSPTQRILRITVLEVERNVPVKLALALLE | not failed
16 | MDIITKMQVDVPRETVFEAFVDPEKIGGFWFSSSSERWEQGKTITLRYEEYDAELNINIERVEDNQLIAFTWGAHPITIQFEESEAGTVVTTTEKDFDTQDVKQLLGQKEGWVYMLSCLKVYLEHGVTIRAAILLEHHHHHH | failed
17 | KEYNIVITGVGGQGILTAANILGWAALRAGYKVRVGEIHGMSQRFGSVIAYVRFGEEVYGAMVPEGKADVILSFEPVEALRYINYLKKGGLVFTNARPIPPVQVSMGIARYPSLEEIKRIVEEDFGGRFLAFDAEKLAIEAGHVVTTNVVLIGALTQTPGFPLSEDHVRDVIKLNVPPKAVEINMRAFDLGVKT | failed
18 | GGTSNEVAQFLSKENQVIVRMRGLPFTATAEEVVAFFGQHCPITGGKEGILFVTYPDGRPTGDAFVLFACEEYAQNALRKHKDLLGKRYIELFRSTAAEVQQVLNRFSSA | not failed
19 | MVRLLHVSFVSHGAAWLPIHSCTGSHGQCERRAAGGPEAWATTPSLAAMPIDTRARQPSCDNRVMNDAALAPDVSAALERGLQAQSLDTAFAAPLLRYLALLVRWNKTYNLTAVRDPRAMVTRHLLDSLAMQPYIASGMLADLGTGPGLPGIPLAITRPQLQVTLVESNGKKARFMREALRHLELRNARVAESRAEALDEPTAYDHLTARALDTLAGIIAVGGHLLRPGGSLLAMKGIYPHEEIAALPEGWTMSEVHQLQVPGLDGERHLVVVRKA | failed
20 | MRQIPQNHIHTRSTPFWNKETAPAGIFERHLDKGTRPGVYPRLSVMQGAVKYLGYADEHCSEPEEIMVINAGEFGVFPPEKWHNIEVMTDDTYFNIDFFVAPEVLMEGATSRKVIHAGRE | failed
21 | MWPVVALTLFVVTFGFVLGGLVVGGKVQARPVSFLLFSGLFLFSSFFGMLVSLFTTGWFPFRLLDVVIVALCFVFIVSCFMRFHPTFGFFQFDGRANMILFAVISFFLGLQLGMLGWRTFFILFLALVFTAGLFAGGVFQVRAVMKFYSRQPSFHFLPLIWLLFATVLKLL | failed
22 | MEVKYLKDSEFLVLLLITTFVVITNVYFIAWDDSPQSWDPALHLTYSFVYFNLIKSLQFSEIVKVSNYYPPFFYLSSTPLYFLFGFSEDIAILTNLIYYFILIYSVFQIAKIMKDRNAGVISAVIISAFPALIKFQRVYMIDFALLSLTAFAILLYLRSEDFRNLKYSVLFGIVFGIAELTKWNAFVYIIPSIFALFLVNYFMRCPYCHQIVKNGWKVGYRRFCSKKHLKLYEKSAKTNNTMLNFAISLFVAFLFAAWWYLPNLSTVIMRLTYFANIGGKEGDPAFLTIQGWIYYANSILDAVGAVFLILFAVSIYYLYKNNRYLFLGLLTPIALIYIILTLLSNKDPRYIMPVLPFVAISIGVFVSSLANRKYSTILTFIILLFGLLNISALTFGQPDIDNKILPNPEHPKKEDWKIYALLEAIKESGGEGKIVVVLPDHPYLNGQSLNFYRLKEGYKFAIYNGVYIGYEAFVHNFDKITYIILIEPREHKGVYGDIEKKLYEFFYERKDNFEVVKVFDLPDNSKLYIYKRT | failed
